This experiment addresses SARS-CoV-2 NTD-RBD-foldon (SARS-CoV-2 (strain Wuhan-1/2020) | bacteriophage T4) (UniProt P0DTC2). Nature of the experiment: SEC-MALS.

As to “SARS-CoV-2 NTD-RBD-foldon (from UniProt P0DTC2 14-541)”, the stoichiometry N amounted to 3.
